{"source": "patent US20240132603A1", "about": "(HARBOUR BIOMED US, published 2024)", "binders": {"B1": {"name": "PR006155 (antibody, human IgG1, kappa)", "heavy": "not shown", "light": "DIVMTQSPLSLPVTLGQPASISCRSSKSLLHSNAKIYLYWFQQRPGQSPRLLIYRMSNLASGVPDRFSGSGSGTDFTLKISRVEAEDVGVYYCMQHLEYPLTFGQGTKLEIKRTVAAPSVFIFPPSDEQLKSGTASVVCLLNNFYPREAKVQWKVDNALQSGNSQESVTEQDSKDSTYSLSSTLTLSKADYEKHKVYACEVTHQGLSSPVTKSFNRGEC"}, "B2": {"name": "PR006276 (antibody, human IgG1, kappa)", "heavy": "not shown", "light": "B1 light"}, "B3": {"name": "PR006275 (antibody, human IgG1, kappa)", "heavy": "not shown", "light": "B1 light"}, "B4": {"name": "PR006166 (antibody, human IgG1, kappa)", "heavy": "not shown", "light": "B1 light"}}, "key": {"cynomolgus monkey CCR8 [1]": {"target": "T1, cynomolgus monkey CCR8 (cynomolgus monkey, UniProt G7NYJ2 1-355)", "T1 construct": "whole, on cells; also called CynoCCR8", "T1 sequence (G7NYJ2 entry or part of it)": "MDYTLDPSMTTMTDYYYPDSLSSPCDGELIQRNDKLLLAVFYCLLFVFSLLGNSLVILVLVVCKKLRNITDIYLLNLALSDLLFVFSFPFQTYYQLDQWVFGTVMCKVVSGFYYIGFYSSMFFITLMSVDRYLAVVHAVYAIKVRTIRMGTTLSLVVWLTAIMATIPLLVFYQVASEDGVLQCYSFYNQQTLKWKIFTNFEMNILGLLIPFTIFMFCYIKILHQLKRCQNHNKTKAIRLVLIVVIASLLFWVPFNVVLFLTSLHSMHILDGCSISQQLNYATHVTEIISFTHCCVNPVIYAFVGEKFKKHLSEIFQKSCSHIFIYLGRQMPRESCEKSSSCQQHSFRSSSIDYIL", "assay": "FACS, CHO-K1-CynoCCR8 cells", "procedure,_shortened": "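Anti-CCR8 antibodies titrated in 5-fold steps from 200 nM onto 1E6 cells/mL CHO-K1-CynoCCR8 in DPBS/2% FBS, 1 h at 4 °C. Bound antibody detected with 1:1000 secondary antibody, 40 min at 4 °C, then flow cytometry.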"}, "human CCR8 [2]": {"target": "T2, human CCR8 (human, UniProt P51685 1-355)", "T2 construct": "whole, on cells; construct used for the overexpressing cell lines is not described; also called hCCR8", "T2 sequence (P51685 whole entry)": "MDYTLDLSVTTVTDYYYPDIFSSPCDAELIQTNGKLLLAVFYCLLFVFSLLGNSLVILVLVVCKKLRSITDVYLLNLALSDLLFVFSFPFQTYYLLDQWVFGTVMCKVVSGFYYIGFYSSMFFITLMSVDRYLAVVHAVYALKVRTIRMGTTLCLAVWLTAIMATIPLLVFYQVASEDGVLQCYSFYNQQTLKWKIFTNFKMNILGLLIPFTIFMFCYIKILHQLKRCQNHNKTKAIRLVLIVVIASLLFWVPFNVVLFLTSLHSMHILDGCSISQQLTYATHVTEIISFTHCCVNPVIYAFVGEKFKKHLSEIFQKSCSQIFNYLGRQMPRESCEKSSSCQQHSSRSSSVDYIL", "assay": "FACS, CHO-K1-hCCR8 cells", "procedure,_shortened": "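Flow cytometry measures antibody binding to the overexpressing cells. These are first incubated at 4 °C for 1 h with test antibody titrated 5-fold down from 200 nM, then for 40 min with secondary antibody diluted 1:1000.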"}, "human CCR8 [3]": {"target": "T2, human CCR8", "assay": "KinExA, cell line overexpressing human CCR8; human CCR8 cell line", "experimental": "(§1) To 200 mg of PMMA hard beads was added 30 μg of Goat Anti-Human IgG Fc antibody, and the mixture was supplemented with a coating solution to 1.0 mL, with a buffer composition of 1×PBS, pH7.4, to ensure that the beads were completely suspended in the solution. After being spun at room temperature for 2 h, the beads were either allowed to settle naturally or centrifuged briefly at low speed, and the supernatant was removed. 1 mL of blocking buffer (1×PBS, pH7.4, containing 10 mg/mL BSA) was added to ensure that the beads were resuspended in the blocking solution, and the beads were spun at room temperature for 1 h. An appropriate concentration of PR005565, PR006155 or PR006166 was used as the 100% signal value, and PBS blank was used as the background value. The net signal values were detected using 0.5 μg/mL Alexa Fluor® 647 Goat Anti-Human IgG. The cell line overexpressing human or monkey CCR8 was collected by centrifugation at 1500 g for 5 min, washed 2 times with 2 PBS and centrifuged at 350 g. The cells were collected in a 1.5 mL centrifuge tube. 10 mL of 0.2 nM PR005565, PR006155 or PR006166 solution was prepared. The total cells were supplemented with 0.2 nM PR005565, PR006155 or PR006166 solution to 0.82 mL, and diluted in a 2-fold gradient with 0.2 nM PR005565, PR006155 or PR006166 as a buffer. […]"}, "TSPAN12-FLAG [4]": {"target": "T3, TSPAN12-FLAG (UniProt O95859 1-305)", "T3 construct": "whole, on cells; order of protein and tag unknown; also called HEK293-TSPAN12; not shown: FLAG tag", "T3 sequence (looked up)": "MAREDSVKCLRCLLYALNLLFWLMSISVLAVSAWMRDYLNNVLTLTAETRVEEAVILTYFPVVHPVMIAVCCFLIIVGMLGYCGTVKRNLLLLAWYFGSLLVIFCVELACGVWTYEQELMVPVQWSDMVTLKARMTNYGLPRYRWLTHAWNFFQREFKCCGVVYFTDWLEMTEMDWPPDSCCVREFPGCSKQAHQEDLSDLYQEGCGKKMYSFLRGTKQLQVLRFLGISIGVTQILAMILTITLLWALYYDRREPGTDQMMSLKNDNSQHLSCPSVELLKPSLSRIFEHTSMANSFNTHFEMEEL", "assay": "flow cytometry, transfected HEK293 cells", "from_the_text": "(§2) After that, HEK293 cells were transfected with commercial MMP16 (protein information can be found under Uniprot P51512), CD40LG (protein information can be found under Uniprot P29965), CD147 (protein information can be found under Uniprot P35612), TSPAN4 (protein information can be found under Uniprot 014817), and TSPAN12 (protein information can be found under Uniprot 095859) plasmids for further verification of the binding of PR005565, PR006275 and PR006276 to these proteins. […] However, the binding values of PR005565, PR006275 and PR006276 to MMP16, CD40LG, CD147, TSPAN4 and TSPAN12 after transfection of HEK293 cells were all consistent with the signal values of HEK293 cells themselves. Thus, PR005565, PR006275 and PR006276 had no non-specific binding to MMP16, CD40LG, CD147, TSPAN4 and TSPAN12 proteins (see Table 50)."}, "MMP16 [5]": {"target": "T4, MMP16 (UniProt P51512 120-607)", "T4 construct": "whole, on cells; also called HEK293-MMP16", "T4 sequence (P51512 120-607)": "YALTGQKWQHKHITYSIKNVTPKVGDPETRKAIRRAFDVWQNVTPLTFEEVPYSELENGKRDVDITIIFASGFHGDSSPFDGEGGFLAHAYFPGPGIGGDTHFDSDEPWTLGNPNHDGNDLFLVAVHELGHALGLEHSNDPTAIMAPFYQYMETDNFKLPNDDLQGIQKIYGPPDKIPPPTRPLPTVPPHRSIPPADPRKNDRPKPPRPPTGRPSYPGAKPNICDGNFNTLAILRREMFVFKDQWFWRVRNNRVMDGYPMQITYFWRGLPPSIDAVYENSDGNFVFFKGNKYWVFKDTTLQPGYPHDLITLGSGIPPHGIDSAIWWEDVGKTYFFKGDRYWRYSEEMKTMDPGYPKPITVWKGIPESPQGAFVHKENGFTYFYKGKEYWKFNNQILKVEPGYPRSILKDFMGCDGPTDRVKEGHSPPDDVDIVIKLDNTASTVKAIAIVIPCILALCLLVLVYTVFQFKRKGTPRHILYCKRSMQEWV", "assay": "flow cytometry, transfected HEK293 cells", "from_the_text": "as §2"}, "TSPAN4-FLAG [6]": {"target": "T5, TSPAN4-FLAG (UniProt O14817 1-238, limits assumed)", "T5 construct": "whole, on cells; order of protein and tag unknown; also called HEK293-TSPAN4; not shown: FLAG tag", "T5 sequence (looked up)": "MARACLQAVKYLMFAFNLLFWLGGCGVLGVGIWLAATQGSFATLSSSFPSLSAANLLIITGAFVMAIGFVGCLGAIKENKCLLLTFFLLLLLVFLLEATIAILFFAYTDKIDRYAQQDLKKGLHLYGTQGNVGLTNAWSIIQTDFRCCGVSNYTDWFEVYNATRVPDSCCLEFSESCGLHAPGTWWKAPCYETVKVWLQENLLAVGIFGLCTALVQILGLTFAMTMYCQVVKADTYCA", "assay": "flow cytometry, transfected HEK293 cells", "from_the_text": "as §2"}, "CD40LG [7]": {"target": "T6, CD40LG (UniProt P29965 1-261)", "T6 construct": "whole, on cells; also called HEK293-CD40LG", "T6 sequence (looked up)": "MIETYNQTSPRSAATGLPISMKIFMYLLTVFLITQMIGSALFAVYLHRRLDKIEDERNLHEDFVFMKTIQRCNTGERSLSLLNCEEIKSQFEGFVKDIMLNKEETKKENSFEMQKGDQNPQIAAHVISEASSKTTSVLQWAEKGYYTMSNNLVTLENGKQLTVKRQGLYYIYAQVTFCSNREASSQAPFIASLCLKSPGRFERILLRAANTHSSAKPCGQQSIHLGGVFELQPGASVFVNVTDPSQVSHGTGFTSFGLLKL", "assay": "flow cytometry, transfected HEK293 cells", "from_the_text": "as §2"}, "TSPAN12-FLAG [8]": {"target": "T3, TSPAN12-FLAG", "assay": "flow cytometry, HEK293-TSPAN12 cells", "from_the_text": "as §2"}, "MMP16 [9]": {"target": "T4, MMP16", "assay": "flow cytometry, HEK293-MMP16 cells"}, "CD147": {"target": "T7, CD147", "T7 construct": "also called HEK293-CD147", "assay": "flow cytometry, HEK293-CD147 cells"}, "TSPAN4-FLAG [10]": {"target": "T5, TSPAN4-FLAG", "assay": "flow cytometry, HEK293-TSPAN4 cells"}, "CD40LG [11]": {"target": "T6, CD40LG", "assay": "flow cytometry, HEK293-CD40LG cells"}, "cynomolgus monkey CCR8 [12]": {"target": "T1, cynomolgus monkey CCR8", "assay": "KinExA, cell line overexpressing monkey CCR8; monkey CCR8 cell line", "experimental": "as §1"}}}
{"binder": "B1", "values": [{"measurement": "EC50", "setting": "cynomolgus monkey CCR8 [1]", "value": 0.39, "unit": "nM"}, {"measurement": "EC50", "setting": "human CCR8 [2]", "value": 0.38, "unit": "nM"}, {"measurement": "Kd", "setting": "human CCR8 [3]", "value": 0.0214, "unit": "nM"}]}
{"binder": "B2", "values": [{"measurement": "binding result", "setting": "TSPAN12-FLAG [4]", "value": "no binding"}, {"measurement": "binding result", "setting": "MMP16 [5]", "value": "no binding"}, {"measurement": "binding result", "setting": "TSPAN4-FLAG [6]", "value": "no binding"}, {"measurement": "binding result", "setting": "CD40LG [7]", "value": "no binding"}, {"measurement": "MFI", "setting": "TSPAN12-FLAG [8]", "value": 185}, {"measurement": "EC50", "setting": "cynomolgus monkey CCR8 [1]", "value": 0.51, "unit": "nM"}, {"measurement": "EC50", "setting": "human CCR8 [2]", "value": 0.4, "unit": "nM"}, {"measurement": "MFI", "setting": "MMP16 [9]", "value": 160}, {"measurement": "MFI", "setting": "CD147", "value": 152}, {"measurement": "MFI", "setting": "TSPAN4-FLAG [10]", "value": 203}, {"measurement": "MFI", "setting": "CD40LG [11]", "value": 152}]}
{"binder": "B3", "values": [{"measurement": "binding result", "setting": "TSPAN12-FLAG [4]", "value": "no binding"}, {"measurement": "binding result", "setting": "MMP16 [5]", "value": "no binding"}, {"measurement": "binding result", "setting": "TSPAN4-FLAG [6]", "value": "no binding"}, {"measurement": "binding result", "setting": "CD40LG [7]", "value": "no binding"}, {"measurement": "MFI", "setting": "TSPAN12-FLAG [8]", "value": 398}, {"measurement": "EC50", "setting": "cynomolgus monkey CCR8 [1]", "value": 0.47, "unit": "nM"}, {"measurement": "EC50", "setting": "human CCR8 [2]", "value": 0.38, "unit": "nM"}, {"measurement": "MFI", "setting": "MMP16 [9]", "value": 204}, {"measurement": "MFI", "setting": "CD147", "value": 362}, {"measurement": "MFI", "setting": "TSPAN4-FLAG [10]", "value": 424}, {"measurement": "MFI", "setting": "CD40LG [11]", "value": 352}]}
{"binder": "B4", "values": [{"measurement": "EC50", "setting": "cynomolgus monkey CCR8 [1]", "value": 0.44, "unit": "nM"}, {"measurement": "EC50", "setting": "human CCR8 [2]", "value": 0.49, "unit": "nM"}, {"measurement": "Kd", "setting": "cynomolgus monkey CCR8 [12]", "value": 0.0493, "unit": "nM"}]}
